The supplement of paper PMC10567573

B1: C8orf76 (parent)
chain: KLAEAYLNLGPALSAALASSQKQH

Variants of: B1
Assay: protein stability index of a GFP-peptide fusion (GPS, HEK-293T) (PSI 1-6); higher = more stable
Details: c terminus: a fixed tail appended
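Note: lentivirally expressed fusions sorted by FACS into six bins by GFP to DsRed ratio, PSI derived from sequencing read proportions per bin multiplied by bin number.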

Variant	protein stability index
KLAEAYINLGPALSAALASSQKQH [L7I]	2.59
KLAEAYDNLGPALSAALASSQKQH [L7D]	2.23
KLAEAYGNLGPALSAALASSQKQH [L7G]	1.67
KLAEAYNNLGPALSAALASSQKQH [L7N]	1.94
KLAEAYANLGPALSAALASSQKQH [L7A]	1.6
KLAEAYFNLGPALSAALASSQKQH [L7F]	2.53
KLAEAYYNLGPALSAALASSQKQH [L7Y]	2.07
KLAEAYQNLGPALSAALASSQKQH [L7Q]	1.54
KLAEAYVNLGPALSAALASSQKQH [L7V]	3.1
KLAEAYKNLGPALSAALASSQKQH [L7K]	1.62
KLAEAYSNLGPALSAALASSQKQH [L7S]	2.21
KLAEAYHNLGPALSAALASSQKQH [L7H]	1.94
KLAEAYTNLGPALSAALASSQKQH [L7T]	1.7
KLAEAYMNLGPALSAALASSQKQH [L7M]	1.53
KLAEAYPNLGPALSAALASSQKQH [L7P]	2.23
KLAEAYENLGPALSAALASSQKQH [L7E]	2.65
KLAEAYCNLGPALSAALASSQKQH [L7C]	2.36
KTAEAYLNLGPALSAALASSQKQH [L2T]	2.8
KWAEAYLNLGPALSAALASSQKQH [L2W]	2.89
KKAEAYLNLGPALSAALASSQKQH [L2K]	3.38
KQAEAYLNLGPALSAALASSQKQH [L2Q]	2.57
KNAEAYLNLGPALSAALASSQKQH [L2N]	2.61
KPAEAYLNLGPALSAALASSQKQH [L2P]	3.15
KYAEAYLNLGPALSAALASSQKQH [L2Y]	1.97

Variant	protein stability index
KIAEAYLNLGPALSAALASSQKQH [L2I]	2.6
KRAEAYLNLGPALSAALASSQKQH [L2R]	2.38
KMAEAYLNLGPALSAALASSQKQH [L2M]	1.68
KVAEAYLNLGPALSAALASSQKQH [L2V]	1.33
KSAEAYLNLGPALSAALASSQKQH [L2S]	3.07
KLANAYLNLGPALSAALASSQKQH [E4N]	2.35
KLAFAYLNLGPALSAALASSQKQH [E4F]	1.94
KLACAYLNLGPALSAALASSQKQH [E4C]	1.57
KLAKAYLNLGPALSAALASSQKQH [E4K]	1.43
KLADAYLNLGPALSAALASSQKQH [E4D]	2.2
KLARAYLNLGPALSAALASSQKQH [E4R]	1.6
KLAPAYLNLGPALSAALASSQKQH [E4P]	2.2
KLAHAYLNLGPALSAALASSQKQH [E4H]	3.03
KLASAYLNLGPALSAALASSQKQH [E4S]	1.31
KLAVAYLNLGPALSAALASSQKQH [E4V]	1.39
KLATAYLNLGPALSAALASSQKQH [E4T]	3.2
KLAYAYLNLGPALSAALASSQKQH [E4Y]	2.55
KLAMAYLNLGPALSAALASSQKQH [E4M]	4.83
KLAAAYLNLGPALSAALASSQKQH [E4A]	1.83
KLAGAYLNLGPALSAALASSQKQH [E4G]	2.43
KLAQAYLNLGPALSAALASSQKQH [E4Q]	2.63
KLAIAYLNLGPALSAALASSQKQH [E4I]	2.97
KLAWAYLNLGPALSAALASSQKQH [E4W]	3.01
KLAEAYLNLGPHLSAALASSQKQH [A12H]	2.14

Variant	protein stability index
KLAEAYLNLGPTLSAALASSQKQH [A12T]	1.26
KLAEAYLNLGPVLSAALASSQKQH [A12V]	3.4
KLAEAYLNLGPELSAALASSQKQH [A12E]	1.96
KLAEAYLNLGPDLSAALASSQKQH [A12D]	2.61
KLAEAYLNLGPMLSAALASSQKQH [A12M]	2.5
KLAEAYLNLGPKLSAALASSQKQH [A12K]	2.32
KLAEAYLNLGPQLSAALASSQKQH [A12Q]	1.73
KLAEAYLNLGPSLSAALASSQKQH [A12S]	2.35
KLAEAYLNLGPPLSAALASSQKQH [A12P]	2.2
KLAEAYLNLGPLLSAALASSQKQH [A12L]	2.59
KLAEAYLNLGPFLSAALASSQKQH [A12F]	2.73
KLAEAYLNLGPYLSAALASSQKQH [A12Y]	2.82
KLAEAYLNLGPWLSAALASSQKQH [A12W]	1.59
KLAEAYLNLGPILSAALASSQKQH [A12I]	2.25
KLAEAYLNLGPRLSAALASSQKQH [A12R]	2.29
KLAEAYLNLGPNLSAALASSQKQH [A12N]	1.68
KLAEAYLNLGPCLSAALASSQKQH [A12C]	1.82
KLAEAYLNLGPGLSAALASSQKQH [A12G]	1.6
KLAEAYLNLGDALSAALASSQKQH [P11D]	2.26
KLAEAYLNLGIALSAALASSQKQH [P11I]	2.53
KLAEAYLNLGEALSAALASSQKQH [P11E]	2.52
KLAEAYLNLGRALSAALASSQKQH [P11R]	3.7
KLAEAYLNLGCALSAALASSQKQH [P11C]	2.49
KLAEAYLNLGMALSAALASSQKQH [P11M]	2.9

Variant	protein stability index
KLAEAYLNLGSALSAALASSQKQH [P11S]	3.4
KLAEAYLNLGFALSAALASSQKQH [P11F]	2.45
KLAEAYLNLGAALSAALASSQKQH [P11A]	2.16
KLAEAYLNLGQALSAALASSQKQH [P11Q]	2.28
KLAEAYLNLGHALSAALASSQKQH [P11H]	1.84
KLAEAYLNLGKALSAALASSQKQH [P11K]	1.94
KLAEAYLNLGYALSAALASSQKQH [P11Y]	1.26
KLAEAYLNLGPACSAALASSQKQH [L13C]	2.77
KLAEAYLNLGPAASAALASSQKQH [L13A]	1.99
KLAEAYLNCGPALSAALASSQKQH [L9C]	1.36
KLAEAYLNAGPALSAALASSQKQH [L9A]	4.3
KLAEAYLNRGPALSAALASSQKQH [L9R]	2.61
KLAEAYLNKGPALSAALASSQKQH [L9K]	3.11
KLAEAYLNWGPALSAALASSQKQH [L9W]	3.02
KLAEAYLNFGPALSAALASSQKQH [L9F]	2.56
KLAEAYLNSGPALSAALASSQKQH [L9S]	1.96
KLAEAYLNMGPALSAALASSQKQH [L9M]	2.36
KLAEAYLNIGPALSAALASSQKQH [L9I]	3.05
KLAEAYLNEGPALSAALASSQKQH [L9E]	2.36
KLAEAYLNDGPALSAALASSQKQH [L9D]	3.5
KLAEAYLNHGPALSAALASSQKQH [L9H]	2.26
KLAEAYLNNGPALSAALASSQKQH [L9N]	2.89
KLAEAYLNVGPALSAALASSQKQH [L9V]	1.91
KLAEAYLNQGPALSAALASSQKQH [L9Q]	3.08

Variant	protein stability index
KLAEAYLNYGPALSAALASSQKQH [L9Y]	2.06
KLAEAYLNGGPALSAALASSQKQH [L9G]	2.68
KLAEAYLNTGPALSAALASSQKQH [L9T]	2.62
KLAEAYLNPGPALSAALASSQKQH [L9P]	2.75
KLAENYLNLGPALSAALASSQKQH [A5N]	2.07
KLAEVYLNLGPALSAALASSQKQH [A5V]	1.89
KLAECYLNLGPALSAALASSQKQH [A5C]	4.48
KLAETYLNLGPALSAALASSQKQH [A5T]	2.93
KLAESYLNLGPALSAALASSQKQH [A5S]	1.24
KLAEQYLNLGPALSAALASSQKQH [A5Q]	2.33
KLAEWYLNLGPALSAALASSQKQH [A5W]	1.58
KLAEHYLNLGPALSAALASSQKQH [A5H]	2.04
KLAEDYLNLGPALSAALASSQKQH [A5D]	2.44
KLAEKYLNLGPALSAALASSQKQH [A5K]	1.82
KLAEFYLNLGPALSAALASSQKQH [A5F]	3.28
KLAEMYLNLGPALSAALASSQKQH [A5M]	3.68
KLAEGYLNLGPALSAALASSQKQH [A5G]	2.03
KLAEEYLNLGPALSAALASSQKQH [A5E]	2.96
KLAELYLNLGPALSAALASSQKQH [A5L]	4.98
KLAERYLNLGPALSAALASSQKQH [A5R]	2.27
KLAEYYLNLGPALSAALASSQKQH [A5Y]	4.03
KLAEPYLNLGPALSAALASSQKQH [A5P]	2.76
KLAEARLNLGPALSAALASSQKQH [Y6R]	2.98
KLAEAVLNLGPALSAALASSQKQH [Y6V]	3.81

Variant	protein stability index
KLAEASLNLGPALSAALASSQKQH [Y6S]	3.04
KLAEAHLNLGPALSAALASSQKQH [Y6H]	2.3
KLAEAILNLGPALSAALASSQKQH [Y6I]	2.39
KLAEATLNLGPALSAALASSQKQH [Y6T]	1.85
KLAEAPLNLGPALSAALASSQKQH [Y6P]	3.59
KLAEANLNLGPALSAALASSQKQH [Y6N]	3.58
KLAEACLNLGPALSAALASSQKQH [Y6C]	2.32
KLAEAWLNLGPALSAALASSQKQH [Y6W]	2.08
KLAEADLNLGPALSAALASSQKQH [Y6D]	3.94
KLAEAALNLGPALSAALASSQKQH [Y6A]	1.54
KLAEAELNLGPALSAALASSQKQH [Y6E]	3.65
KLAEAQLNLGPALSAALASSQKQH [Y6Q]	2.73
KLAEAKLNLGPALSAALASSQKQH [Y6K]	3.18
KLFEAYLNLGPALSAALASSQKQH [A3F]	3.79
KLSEAYLNLGPALSAALASSQKQH [A3S]	1.82
KLEEAYLNLGPALSAALASSQKQH [A3E]	1.85
KLLEAYLNLGPALSAALASSQKQH [A3L]	3.56
KLPEAYLNLGPALSAALASSQKQH [A3P]	2.48
KLYEAYLNLGPALSAALASSQKQH [A3Y]	3.71
KLDEAYLNLGPALSAALASSQKQH [A3D]	3.08
KLWEAYLNLGPALSAALASSQKQH [A3W]	3.22
KLQEAYLNLGPALSAALASSQKQH [A3Q]	1.72
KLCEAYLNLGPALSAALASSQKQH [A3C]	3.15
KLGEAYLNLGPALSAALASSQKQH [A3G]	2.22

Variant	protein stability index
KLHEAYLNLGPALSAALASSQKQH [A3H]	2.29
KLTEAYLNLGPALSAALASSQKQH [A3T]	1.52
KLREAYLNLGPALSAALASSQKQH [A3R]	2.24
KLMEAYLNLGPALSAALASSQKQH [A3M]	1.43
KLVEAYLNLGPALSAALASSQKQH [A3V]	3.08
KLKEAYLNLGPALSAALASSQKQH [A3K]	1.93
KLIEAYLNLGPALSAALASSQKQH [A3I]	2.07
KLNEAYLNLGPALSAALASSQKQH [A3N]	2.12
KLAEAYLSLGPALSAALASSQKQH [N8S]	3.78
KLAEAYLHLGPALSAALASSQKQH [N8H]	2.16
KLAEAYLTLGPALSAALASSQKQH [N8T]	3.12
KLAEAYLWLGPALSAALASSQKQH [N8W]	3.78
KLAEAYLFLGPALSAALASSQKQH [N8F]	2.74
KLAEAYLKLGPALSAALASSQKQH [N8K]	1.33
KLAEAYLPLGPALSAALASSQKQH [N8P]	2.02
KLAEAYLALGPALSAALASSQKQH [N8A]	4.23
KLAEAYLMLGPALSAALASSQKQH [N8M]	2.15
KLAEAYLLLGPALSAALASSQKQH [N8L]	2.33
KLAEAYLQLGPALSAALASSQKQH [N8Q]	1.73
KLAEAYLELGPALSAALASSQKQH [N8E]	2.42
KLAEAYLDLGPALSAALASSQKQH [N8D]	2.07
KLAEAYLYLGPALSAALASSQKQH [N8Y]	2.59
KLAEAYLGLGPALSAALASSQKQH [N8G]	2.5
KLAEAYLCLGPALSAALASSQKQH [N8C]	3.63

Variant	protein stability index
KLAEAYLVLGPALSAALASSQKQH [N8V]	3.33
KLAEAYLRLGPALSAALASSQKQH [N8R]	3.8
KLAEAYLNLTPALSAALASSQKQH [G10T]	2.12
KLAEAYLNLMPALSAALASSQKQH [G10M]	2.77
KLAEAYLNLCPALSAALASSQKQH [G10C]	2.66
KLAEAYLNLFPALSAALASSQKQH [G10F]	2.51
KLAEAYLNLIPALSAALASSQKQH [G10I]	3.16
KLAEAYLNLKPALSAALASSQKQH [G10K]	2.26
KLAEAYLNLPPALSAALASSQKQH [G10P]	2.58
KLAEAYLNLSPALSAALASSQKQH [G10S]	2.51
KLAEAYLNLNPALSAALASSQKQH [G10N]	2.08
KLAEAYLNLQPALSAALASSQKQH [G10Q]	2.21
KLAEAYLNLRPALSAALASSQKQH [G10R]	1.94
KLAEAYLNLDPALSAALASSQKQH [G10D]	1.88
KLAEAYLNLWPALSAALASSQKQH [G10W]	1.61
KLAEAYLNLAPALSAALASSQKQH [G10A]	1.92
KLAEAYLNLYPALSAALASSQKQH [G10Y]	1.86
KLAEAYLNLEPALSAALASSQKQH [G10E]	1.87
KLAEAYLNLHPALSAALASSQKQH [G10H]	1.96
KLAEAYLNLVPALSAALASSQKQH [G10V]	2.73
